Assay results published in patent publication US20090181003.

Tests used:
[1] = biological target: recombinant S6K2 (highly purified)
[2] = biological target: recombinant S6K1 (highly purified)

Sequence of recombinant S6K2 (highly purified) (chain, as listed by the source): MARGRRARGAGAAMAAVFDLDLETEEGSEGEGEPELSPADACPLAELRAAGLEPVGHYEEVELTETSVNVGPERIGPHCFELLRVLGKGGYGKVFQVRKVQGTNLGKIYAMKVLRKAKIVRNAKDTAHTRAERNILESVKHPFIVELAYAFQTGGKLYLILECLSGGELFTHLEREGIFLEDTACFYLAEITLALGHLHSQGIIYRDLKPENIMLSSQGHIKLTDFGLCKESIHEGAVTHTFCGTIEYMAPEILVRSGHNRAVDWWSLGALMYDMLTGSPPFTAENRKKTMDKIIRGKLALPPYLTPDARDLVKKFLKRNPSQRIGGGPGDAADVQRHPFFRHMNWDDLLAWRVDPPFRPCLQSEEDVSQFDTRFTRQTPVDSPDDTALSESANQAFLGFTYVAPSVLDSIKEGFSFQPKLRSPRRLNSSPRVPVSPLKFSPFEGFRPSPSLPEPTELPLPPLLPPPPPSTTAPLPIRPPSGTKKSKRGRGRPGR
Sequence of GST [GST: P08515] (P08515 whole entry): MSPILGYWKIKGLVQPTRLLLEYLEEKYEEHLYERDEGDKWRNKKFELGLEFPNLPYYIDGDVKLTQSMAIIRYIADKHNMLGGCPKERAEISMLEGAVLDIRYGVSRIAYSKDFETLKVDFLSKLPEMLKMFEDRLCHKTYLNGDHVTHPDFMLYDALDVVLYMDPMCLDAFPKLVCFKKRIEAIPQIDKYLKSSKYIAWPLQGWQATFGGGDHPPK

Protein | in vitro acetylation (incorporation of 14C labelled acetyl groups, autoradiography) [1] | in vitro acetylation (incorporation of 14C labelled acetyl groups, autoradiography) [2] | in vitro acetylation (GST [GST: P08515])
GST-P/CAF (protein) MSEAGGAGPGGCGAGAGAGAGPGALPPQPAALPPAPPQGSPCAAAAGGSGACGPATAVAAAGTAEGPGGGGSARIAVKKAQLRSAPRAKKLEKLGVYSACKAEESCKCNGWKNPNPSPTPPRADLQQIIVSLTESCRSCSHALAAHVSHLENVSEEEMNRLLGIVLDVEYLFTCVHKEEDADTKQVYFYLFKLLRKSILQRGKPVVEGSLEKKPPFEKPSIEQGVNNFVQYKFSHLPAKERQTIVELAKMFLNRINYWHLEAPSQRRLRSPNDDISGYKENYTRWLCYCNVPQFCDSLPRYETTQVFGRTLLRSVFTVMRRQLLEQARQEKDKLPLEKRTLILTHFPKFLSMLEEEVYSQNSPIWDQDFLSASSRTSQLGIQTVINPPPVAGTISYNSTSSSLEQPNAGSSSPACKASSGLEANPGEKRKMTDSHVLEEAKKPRVMGDIPMELINEVMSTITDPAAMLGPETNFLSAHSARDEAARLEERRGVIEFHVVGNSLNQKPNKKILMWLVGLQNVFSHQLPRMPKEYITRLVFDPKHKTLALIKDGRVIGGICFRMFPSQGFTEIVFCAVTSNEQVKGYGTHLMNHLKEYHIKHDILNFLTYADEYAIGYFKKQGFSKEIKIPKTKYVGYIKDYEGATLMGCELNPRIPYTEFSVIIKKQKEIIKKLIERKQAQIRKVYPGLSCFKDGVRQIPIESIPGIRETGWKPSGKEKSKEPRDPDQLYSTLKSILQQVKSHQSAWPFMEPVKRTEAPGYYEVIRFPMDLKTMSERLKNRYYVSKKLFMADLQRVFTNCKEYNPPESEYYKCANILEKFFFSKIKEAGLIDK | when S6K1 and S6K2 were incubated in the presence of GST-p300 HAT domain 4 or GST-P/CAF, ^14C labeled acetyl groups were indeed incorporated into the proteins | when S6K1 and S6K2 were incubated in the presence of GST-p300 HAT domain 4 or GST-P/CAF, ^14C labeled acetyl groups were indeed incorporated into the proteins | 
GST-p300 HAT domain 4 (protein) KPKRLQEWYKKMLDKAVSERIVHDYKDIFKQATEDRLTSAKELPYFEGDFWPNVLEESIKELEQEEEERKREENTSNESTDVTKGDSKNAKKKNNKKTSKNKSSLSRGNKKKPGMPNVSNDLSQKLYATMEKHKEVFFVIRLIAGPAANSLPPIVDPDPLIPCDLMDGRDAFLTLARDKHLEFSSLRRAQWSTMCMLVELHTQSQDRFVYTCNECKHHVETRWHCTVCEDYDLCITCYNTKNHDHKMEKLGLGLDDESNNQQAAATQSPGDSRRLSIQRCIQSLVHACQCRNANCSLPSCQKMKRVVQHTKGCKRKTNGGCPICKQLIALCCYHAKHCQENKCPVPFCLNIKQKLRQQQLQHRLQQAQMLRRRMASMQRTGVVGQQQGLPSPTPATPTTPTGQQPTTPQTPQPTSQPQPTPPNSMPPYLPRTQA | when S6K1 and S6K2 were incubated in the presence of GST-p300 HAT domain 4 or GST-P/CAF, ^14C labeled acetyl groups were indeed incorporated into the proteins | when S6K1 and S6K2 were incubated in the presence of GST-p300 HAT domain 4 or GST-P/CAF, ^14C labeled acetyl groups were indeed incorporated into the proteins | no acetylation of GST is seen under these conditions
